Values joined by “and” are separate entries in the source; they are usually repeats but may differ in a detail not shown here. Equal values may be shown once.
Columns and labels:
[1] = stated, literature or standard value; cited from earlier work
[2] = Isoelectric point by polyacrylamide gel isoelectric focusing, compared with positions of standards; type: physicochemical; conditions: constant voltage, mini IEF cell
Protocol: The isoelectric points (pI) of proteins were determined experimentally by polyacrylamide gel isoelectric focusing, using the procedure specified by BiORad Laboratories, Inc. (Hercules, Calif.). A mini IEF cell (Model 111) purchased from BiORad equipped by two graphite electrodes was employed for this purpose. Focusing was carried out under constant voltage conditions (Power Pac 1000, BiORad).
(§1) Isoelectric points of proteins were determined by comparison with positions of standards.

[3] = Stability of the fluorescence of the BSA conjugate over a broad range of pH values; type: physicochemical; conditions: pH 2.5 to 10.0, 1.52 μM, excitation 495 nm, every 30 minutes for 4.5 hours
Protocol: as §1
The fluorescence of the BSA-Bodipy FL conjugate is reported to be insensitive to pH between 4 and 8. […] A fluorescence spectrum from 500-550 nm for an excitation wavelength of 495.0±2.5 nm was recorded for each of the solutions immediately after its preparation and then after each 30 minutes for 4.5 hours.

[4] = Isoelectric focusing in the microchannel (microfluidic IEF), position of the focused zone; type: physicochemical; conditions: 0.1 mM histidine buffer, initial pH 7.1, 2.5V for 6 minutes
Protocol: Bovine hemoglobin (Hb) was selected as a test case because of its strong absorbance at 550 nm (facilitating observation without need for additional dyes). The pI of Hb is 7.1, as verified by polyacrylamide gel isoelectric focusing run at the same concentration as was used for IEF in the microchannel. […] A voltage of 2.5V (resulting in a current of 5 μA) was applied for 6 minutes. Two zones of higher optical density close to the electrodes were formed within 15 s. They moved towards each other meeting to form one dark zone after 5 minutes. Even with a relatively high concentration of Hb (1.55×10^−4 M), the darker zones and their migration were barely visible in color images. Normalized plots of green pixel values vs. position allowed monitoring of Hb migration. The position of the final focused zone of Hb in the microchannel corresponded to a pH of 7.1±0.3 on the basis of previous results with acid-base indicators under similar conditions (FIG. 8). The pI value determined by IEF in the microchannel was within experimental error, identical to that in the literature and that determined by our gel IEF experiment.

N[C@@H](Cc1c[nH]cn1)C(=O)O [histidine]
isoelectric point (pI) [1]: 7.4

BSA conjugate: fluorescent bovine serum albumin (BSA)—Bodipy FL conjugate (Molecular Probes)
pI determined by polyacrylamide gel isoelectric focusing [2]: 4.6±0.1 and 4.65 | change of fluorescence over time [3]: did not significantly change

Bovine hemoglobin: bovine hemoglobin (Sigma), test analyte for isoelectric focusing
pH corresponding to the position of the final focused zone in the microchannel [4]: 7.1±0.3 | pI determined by polyacrylamide gel isoelectric focusing [2]: 7.1 | isoelectric point (pI) [1]: 7.1

human hemoglobin A: pI standard in gel isoelectric focusing
isoelectric point (pI) [1]: 7.1

phycocyanin
isoelectric point (pI) [1]: 4.65
